{"source": "patent US6132750A", "about": "(Coletica, priority 1998, dated 2000)", "assay": "Inhibition of the Fe2+ induced radical degradation of hyaluronic acid (viscosity drop)", "protocol": "The chelating microspheres prepared according to I2 are used to evaluate their capacity, via the trapping of ferrous iron Fe2+, to inhibit the radical degradation of hyaluronic acid, glycosarinoglycan implied in the moisturisation of the human dermis, which is therefore a particularly important target to protect in cosmetic and dermo-pharmaceutical applications.\nA 10 g/l solution of hyaluronic acid of high molecular weight (>1,000,000g/mol or Daltons) is prepared in demineralised water. To this solution is added an amount of Fe2+ of 620 ppm.\nOther chelating agents which are conventionally used in cosmetics were used and compared to the chelating microspheres, for their capacity to reduce the radical degradation of hyaluronic acid. Indices of protection, expressed in % of protection, are calculated by carrying out a ratio of the drop in viscosity observed by the presence of iron Fe2+ (620 ppm) in the presence of the chelating agent studied, and the drop in viscosity observed with and without iron Fe2+."}
{"molecule": "Lactoferrin (protein, UniProt P02788 20-710, looked up, chelating agent conventionally used in cosmetics for trapping iron) Lactotransferrin: GRRRSVQWCAVSQPEATKCFQWQRNMRKVRGPPVSCIKRDSPIQCIQAIAENRADAVTLDGGFIYEAGLAPYKLRPVAAEVYGTERQPRTHYYAVAVVKKGGSFQLNELQGLKSCHTGLRRTAGWNVPIGTLRPFLNWTGPPEPIEAAVARFFSASCVPGADKGQFPNLCRLCAGTGENKCAFSSQEPYFSYSGAFKCLRDGAGDVAFIRESTVFEDLSDEAERDEYELLCPDNTRKPVDKFKDCHLARVPSHAVVARSVNGKEDAIWNLLRQAQEKFGKDKSPKFQLFGSPSGQKDLLFKDSAIGFSRVPPRIDSGLYLGSGYFTAIQNLRKSEEEVAARRARVVWCAVGEQELRKCNQWSGLSEGSVTCSSASTTEDCIALVLKGEADAMSLDGGYVYTAGKCGLVPVLAENYKSQQSSDPDPNCVDRPVEGYLAVAVVRRSDTSLTWNSVKGKKSCHTAVDRTAGWNIPMGLLFNQTGSCKFDEYFSQSCAPGSDPRSNLCALCIGDEQGENKCVPNSNERYYGYTGAFRCLAENAGDVAFVKDVTVLQNTDGNNNEAWAKDLKLADFALLCLDGKRKPVTEARSCHLAMAPNHAVVSRMDKVERLKQVLLHQQAKFGRNGSDCPDKFCLFQSETKNLLFNDNTECLARLHGKTTYEKYLGPQYVAGITNLKKCSTSPLLEACEFLRK", "values": [{"measurement": "Index of protection (%)", "setting": "concentration used 133 mg/l, hyaluronic acid 10 g/l, Fe2+ 620 ppm", "result": 25, "unit": "%"}, {"measurement": "effect on the depolymerisation (radical cleavage) of hyaluronic acid in the presence of iron", "setting": "in words", "result": "accelerated"}]}
